First the molecules themselves.
B1: POU domain, class 3, transcription factor 3, residues 408 to 463; numbered along this chain, P20264 (parent)
chain: KKRTSIEVSVKGALESHFLKCPKPSAQEITNLADSLQLEKEVVRVWFCNRRQKEKR

± gives the uncertainty stated by the source.

The variants in this data set derive from B1. Nature of the data set: abundance fitness (aPCA) (normalised: wild type 0, dead -1); higher = more abundant; growth selection in yeast, the domain comes from the species named. Conditions: Homo sapiens.
Turning to V45E, the abundance fitness is 0.034 ± 0.08. The same measure for G12F: -0.054 ± 0.11. The same measure for G12W: -0.25 ± 0.084; for G12Y: 0.103 ± 0.14. The same measure for G12H: -0.009 ± 0.16.

G12A: the abundance fitness was determined as 0.227 ± 0.087.

For G12T, the abundance fitness was 0.078 ± 0.099.

G12D: the abundance fitness came out at 0.048 ± 0.1. The result for A13T reads -0.058 ± 0.096; that for A13P, -0.353 ± 0.12. On to A13E, for which the abundance fitness was -0.081 ± 0.095.

A13G: the abundance fitness is -0.46 ± 0.067. The same measure for A13S: -0.079 ± 0.089. On to A13N, for which the abundance fitness was -0.274 ± 0.18. The same measure for A13Q: -0.099 ± 0.11; for A13R: 0.018 ± 0.064. Turning to A13F, the abundance fitness was -0.191 ± 0.17. The result for A13W reads -0.344 ± 0.092; that for I6A, -0.015 ± 0.1. With I6S, the abundance fitness was -0.077 ± 0.078. The result for I6K reads -0.051 ± 0.12; that for I6T, 0.058 ± 0.13.

I6R: the abundance fitness was -0.108 ± 0.068. The result for R51V reads -0.222 ± 0.09; that for R51N, -0.175 ± 0.28; that for R51G, -0.156 ± 0.062. The result for R51Y reads 0.243 ± 0.48; that for R51I, -0.207 ± 0.27; that for R51F, -0.385 ± 0.23. For R51M, the abundance fitness was 0.031 ± 0.12. For the variant P22V, the abundance fitness is -0.641 ± 0.18. For the variant P22H, the abundance fitness is -0.448 ± 0.36. The result for P22R reads -0.398 ± 0.14. The result for P22Y reads -0.383 ± 0.47; that for V8H, -0.052 ± 0.15.

For the variant V8L, the abundance fitness turned out to be 0.1 ± 0.08.

Regarding V8R, the abundance fitness was 0.001 ± 0.062. The same measure for V8N: 0.039 ± 0.17; for V8F: 0.04 ± 0.27. On to K55Q, for which the abundance fitness was -0.132 ± 0.16. The same measure for K55T: -0.095 ± 0.099. The result for K55P reads -0.265 ± 0.16; that for K55F, -0.312 ± 0.17; that for K55W, -0.129 ± 0.12. The result for L38K reads -0.895 ± 0.14; that for L38C, -0.387 ± 0.09; that for L38Y, -0.982 ± 0.2.

Consider L38R, for which the abundance fitness was -0.889 ± 0.08.

As for L38S, the abundance fitness is -0.699 ± 0.078.

On to L38H, for which the abundance fitness was -0.735 ± 0.16.

Regarding R56M, the abundance fitness worked out at 0.002 ± 0.31. As for R56T, the abundance fitness was -0.05 ± 0.2. The same measure for R56E: 0.093 ± 0.17; for R56H: -0.277 ± 0.41. The same measure for R56D: -0.247 ± 0.26; for R56S: -0.151 ± 0.27. The result for C21D reads -0.094 ± 0.12; that for C21L, -0.611 ± 0.088; that for C21Q, 0.084 ± 0.11.

As to C21K, the abundance fitness is -0.408 ± 0.12. The same measure for C21F: -0.407 ± 0.16; for C21R: -0.501 ± 0.063; for C21I: -0.73 ± 0.24. The same measure for H17L: -0.188 ± 0.081; for H17Y: 0.041 ± 0.11. In the case of H17W, the abundance fitness is -0.048 ± 0.08. For the variant H17R, the abundance fitness was -0.444 ± 0.072.

For H17S, the abundance fitness is -0.039 ± 0.085. The result for H17E reads -0.176 ± 0.089; that for K23T, -0.052 ± 0.1; that for K23Y, -0.05 ± 0.11. The result for K23V reads -0.082 ± 0.066; that for K23E, -0.028 ± 0.072; that for K23N, 0.248 ± 0.11. The result for K53E reads -0.013 ± 0.12; that for K53A, 0.076 ± 0.1.

Consider K53I, for which the abundance fitness was -0.121 ± 0.13. The result for K53D reads 0.196 ± 0.22; that for K53S, 0.068 ± 0.082; that for K53T, -0.067 ± 0.12. K53L: the abundance fitness was 0.032 ± 0.08. The same measure for K53M: -0.167 ± 0.11; for S5P: 0.132 ± 0.12; for S5K: 0.097 ± 0.11. For the variant S5H, the abundance fitness is 0.175 ± 0.15. The same measure for S5C: 0.128 ± 0.09. Consider E28N, for which the abundance fitness is -0.455 ± 0.19. Take E28D: the abundance fitness is -0.256 ± 0.15.

As for E28R, the abundance fitness is -0.456 ± 0.069. The same measure for E28V: -0.442 ± 0.084; for E28Q: -0.145 ± 0.15; for E28H: -0.554 ± 0.25. The same measure for K1I: -0.181 ± 0.16; for K1W: -0.15 ± 0.34. The same measure for K1G: -0.067 ± 0.1. Take K1M: the abundance fitness was -0.333 ± 0.23. K1D: the abundance fitness was -0.124 ± 0.13. As for K1A, the abundance fitness is -0.075 ± 0.27. Take K1S: the abundance fitness was -0.154 ± 0.14. The result for K1R reads -0.263 ± 0.12; that for T30F, -0.082 ± 0.12. Regarding T30M, the abundance fitness was -0.057 ± 0.095. With T30P, the abundance fitness was -0.847 ± 0.14. For T30D, the abundance fitness is 0.048 ± 0.1. As for T30S, the abundance fitness was found to be 0.031 ± 0.071. Take T30H: the abundance fitness is -0.153 ± 0.12. Consider V43R, for which the abundance fitness was -0.931 ± 0.086.

As to V43I, the abundance fitness was -0.341 ± 0.14. The result for V43E reads -0.792 ± 0.12; that for V43S, -0.926 ± 0.12. The same measure for V43D: -0.972 ± 0.22; for V43T: -0.595 ± 0.14; for V43Q: -0.88 ± 0.16. The result for V43L reads -0.382 ± 0.085. Regarding V43W, the abundance fitness is -0.994 ± 0.13. The same measure for R50V: -0.914 ± 0.089. The same measure for R50T: -0.883 ± 0.17; for R50H: -0.668 ± 0.15; for R50Y: -0.889 ± 0.18. The result for S25V reads -0.45 ± 0.081; that for S25N, -0.092 ± 0.16. Regarding S25C, the abundance fitness was -0.185 ± 0.11. In the case of S25H, the abundance fitness was -0.593 ± 0.17. The result for S25T reads -0.075 ± 0.11. The same measure for K20C: -0.465 ± 0.14. The same measure for K20T: -0.256 ± 0.1; for K20Q: 0.054 ± 0.14. For K20A, the abundance fitness was -0.218 ± 0.079. The result for K20L reads -0.195 ± 0.072; that for K20R, -0.05 ± 0.075; that for K20M, -0.187 ± 0.12.

On to E7K, for which the abundance fitness amounted to 0.028 ± 0.1. The result for E7W reads -0.436 ± 0.21. The same measure for E7I: -0.157 ± 0.069; for E7T: 0.134 ± 0.056; for E7S: 0.144 ± 0.052. The same measure for E7Y: -0.3 ± 0.06; for A26S: -0.168 ± 0.08. Consider A26P, for which the abundance fitness came to 0.039 ± 0.13. The same measure for A26T: -0.081 ± 0.1. Turning to A26H, the abundance fitness came out at 0.071 ± 0.17. The result for A26F reads -0.297 ± 0.15; that for A26C, -0.102 ± 0.087. The result for A26G reads -0.086 ± 0.06; that for A26D, -0.004 ± 0.11; that for A26R, -0.073 ± 0.064.

For the variant C48A, the abundance fitness was -0.12 ± 0.12.

For the variant C48R, the abundance fitness was 0.035 ± 0.062. The same measure for C48N: 0.211 ± 0.2. The result for C48K reads -0.074 ± 0.11; that for C48Q, 0.131 ± 0.088. The same measure for C48M: 0.026 ± 0.11; for L36M: -0.166 ± 0.098. Take L36N: the abundance fitness was -0.869 ± 0.19. With L36F, the abundance fitness was -0.177 ± 0.11.

As for E39D, the abundance fitness turned out to be 0.124 ± 0.12. The same measure for E39Q: -0.322 ± 0.099; for E39F: -0.948 ± 0.19. The result for E39S reads -0.055 ± 0.07; that for E39R, -0.327 ± 0.064.

Consider E39Y, for which the abundance fitness was -0.927 ± 0.15. Consider E39G, for which the abundance fitness is -0.257 ± 0.064. The result for F18E reads -0.875 ± 0.12. Turning to F18L, the abundance fitness is -1.01 ± 0.11. With F18Q, the abundance fitness is -0.703 ± 0.2.

For F18T, the abundance fitness is -0.922 ± 0.14. The result for F18S reads -0.902 ± 0.11.
